For assay [1], the target named is T1, Mouse LIF (leukemia inhibitory factor) (mouse, UniProt P09056 24-203). In words: binding of LIF to His-tagged soluble LIF receptor on Ni-NTA agarose.
Assay [2] deals with T1, Mouse LIF (leukemia inhibitory factor). In words: competition for 125I-human LIF binding to Hela cells.
For assay [3] the target is unchanged. In words: Scatchard analysis of binding to M1 cells, summary over both labeled ligands.
Assay [4] has the same target. In words: 0.047 nM 125I-mouse CT-1 on M1 cells competed by unlabeled LIF, Scatchard, one-site fit.
Source text: (§1) Shown are competition and Scatchard (insert) plots of the data.
The target is the same in assay [5]. Kind of assay: 0.042 nM 125I-mouse LIF on M1 cells competed by unlabeled LIF, Scatchard, one-site fit.
Source text: as §1

The Kd is the free concentration of one partner at which half of the binding sites on the other are occupied at equilibrium, for simple one-to-one binding.

B1: Soluble mouse LIF receptor (extracellular domain, amino acids 1-826, with a C-terminal tag of 6 histidine residues) (receptor)
chain: LKRGVQDLKCTTNNMRVWDCTWPAPLGVSPGTVKDICIKDRFHSCHPLETTNVKIPALSPGDHEVTINYLNGFQSKFTLNEKDVSLIPETPEILDLSADFFTSSLLLKWNDRGSALPHPSNATWEIKVLQNPRTEPVALVLLNTMLSGKDTVQHWNWTSDLPLQCATHSVSIRWHIDSPHFSGYKEWSDWSPLKNISWIRNTETNVFPQDKVVLAGSNMTICCMSPTKVLSGQIGNTLRPLIHLYGQTVAIHILNIPVSENSGTNIIFITDDDVYGTVVFAGYPPDVPQKLSCETHDLKEIICSWNPGRITGLVGPRNTEYTLFESISGKSAVFHRIEGLTNETYRLGVQMHPGQEIHNFTLTGRNPLGQAQSAVVINVTERVAPHDPTSLKVKDINSTVVTFSWYLPGNFTKINLLCQIEICKANSKKEVRNATIRGAEDSTYHVAVDKLNPYTAYTFRVRCSSKTFWKWSRWSDEKRHLTTEATPSKGPDTWREWSSDGKNLIVYWKPLPINEANGKILSYNVSCSLNEETQSVLEIFDPQHRAEIQLSKNDYIISVVARNSAGSSPPSKIASMEIPNDDITVEQAVGLGNRIFLTWRHDPNMTCDYVIKWCNSSRSEPCLLDWRKVPSNSTETVIESDQFQPGVRYNFYLYGCTNQGYQLLRSIIGYVEELAPIVAPNFTVEDTSADSILVKWDDIPVEELRGFLRGYLFYFQKGERDTPKTRSLEPHHSDIKLKNITDISQKTLRIADLQGKTSYHLVLRAYTHGGLGPEKSMFVVTKEHHHHHH
notes: range 44-826; Expressed in human 293 cells, purified on Ni-NTA agarose; single band of 120 kDa; also called smLIFR; soluble LIF receptor
Molecule B1 came in with a Kd in assay [1] of 1.5 nM.

B2: Human LIF receptor on human Hela cells (receptor)
chain: QKKGAPHDLKCVTNNLQVWNCSWKAPSGTGRGTDYEVCIENRSRSCYQLEKTSIKIPALSHGDYEITINSLHDFGSSTSKFTLNEQNVSLIPDTPEILNLSADFSTSTLYLKWNDRGSVFPHRSNVIWEIKVLRKESMELVKLVTHNTTLNGKDTLHHWSWASDMPLECAIHFVEIRCYIDNLHFSGLEEWSDWSPVKNISWIPDSQTKVFPQDKVILVGSDITFCCVSQEKVLSALIGHTNCPLIHLDGENVAIKIRNISVSASSGTNVVFTTEDNIFGTVIFAGYPPDTPQQLNCETHDLKEIICSWNPGRVTALVGPRATSYTLVESFSGKYVRLKRAEAPTNESYQLLFQMLPNQEIYNFTLNAHNPLGRSQSTILVNITEKVYPHTPTSFKVKDINSTAVKLSWHLPGNFAKINFLCEIEIKKSNSVQEQRNVTIKGVENSSYLVALDKLNPYTLYTFRIRCSTETFWKWSKWSNKKQHLTTEASPSKGPDTWREWSSDGKNLIIYWKPLPINEANGKILSYNVSCSSDEETQSLSEIPDPQHKAEIRLDKNDYIISVVAKNSVGSSPPSKIASMEIPNDDLKIEQVVGMGKGILLTWHYDPNMTCDYVIKWCNSSRSEPCLMDWRKVPSNSTETVIESDEFRPGIRYNFFLYGCRNQGYQLLRSMIGYIEELAPIVAPNFTVEDTSADSILVKWEDIPVEELRGFLRGYLFYFGKGERDTSKMRVLESGRSDIKVKNITDISQKTLRIADLQGKTSYHLVLRAYTDGGVGPEKSMYVVTKENSVGLIIAILIPVAVAVIVGVVTSILCYRKREWIKETFYPDIPNPENCKALQFQKSVCEGSSALKTLEMNPCTPNNVEVLETRSAFPKIEDTEIISPVAERPEDRSDAEPENHVVVSYCPPIIEEEIPNPAADEAGGTAQVIYIDVQSMYQPQAKPEEEQENDPVGGAGYKPQMHLPINSTVEDIAAEEDLDKTAGYRPQANVNTWNLVSPDSPRSIDSNSEIVSFGSPCSINSRQFLIPPKDEDSPKSNGGGWSFTNFFQNKPND
notes: whole, on cells; Endogenous receptor on cells; other subunits (gp130) not examined on these cells
For the molecule B2, the binding result in assay [2] is “no binding”.

B3: Mouse LIF receptor on mouse M1 cells (LIF receptor complex with gp130) (receptor)
chain 1: LKRGVQDLKCTTNNMRVWDCTWPAPLGVSPGTVKDICIKDRFHSCHPLETTNVKIPALSPGDHEVTINYLNGFQSKFTLNEKDVSLIPETPEILDLSADFFTSSLLLKWNDRGSALPHPSNATWEIKVLQNPRTEPVALVLLNTMLSGKDTVQHWNWTSDLPLQCATHSVSIRWHIDSPHFSGYKEWSDWSPLKNISWIRNTETNVFPQDKVVLAGSNMTICCMSPTKVLSGQIGNTLRPLIHLYGQTVAIHILNIPVSENSGTNIIFITDDDVYGTVVFAGYPPDVPQKLSCETHDLKEIICSWNPGRITGLVGPRNTEYTLFESISGKSAVFHRIEGLTNETYRLGVQMHPGQEIHNFTLTGRNPLGQAQSAVVINVTERVAPHDPTSLKVKDINSTVVTFSWYLPGNFTKINLLCQIEICKANSKKEVRNATIRGAEDSTYHVAVDKLNPYTAYTFRVRCSSKTFWKWSRWSDEKRHLTTEATPSKGPDTWREWSSDGKNLIVYWKPLPINEANGKILSYNVSCSLNEETQSVLEIFDPQHRAEIQLSKNDYIISVVARNSAGSSPPSKIASMEIPNDDITVEQAVGLGNRIFLTWRHDPNMTCDYVIKWCNSSRSEPCLLDWRKVPSNSTETVIESDQFQPGVRYNFYLYGCTNQGYQLLRSIIGYVEELAPIVAPNFTVEDTSADSILVKWDDIPVEELRGFLRGYLFYFQKGERDTPKTRSLEPHHSDIKLKNITDISQKTLRIADLQGKTSYHLVLRAYTHGGLGPEKSMFVVTKENSVGLIIAILIPVAVAVIVGVVTSILCYRKREWIKETFYPDIPNPENCKALQFQKSVCEGSNALKTLEMNPCTPNNVEVLESRSIVPKIEDTEIISPVAERPGERSEVDPENHVVVSYCPPIIEEEITNPAADEVGGASQVVYIDVQSMYQPQAKAEEEQDVDPVVVAGYKPQMRLPISPAVEDTAAEDEEGKTAGYRPQANVNTWNLVSPDSPRSTDSNNEVVSFGSPCSINSRQFLIPPKDEDSPKSNGGGWSFTNFFQNKPND
chain 2: QLLEPCGYIYPEFPVVQRGSNFTAICVLKEACLQHYYVNASYIVWKTNHAAVPREQVTVINRTTSSVTFTDVVLPSVQLTCNILSFGQIEQNVYGVTMLSGFPPDKPTNLTCIVNEGKNMLCQWDPGRETYLETNYTLKSEWATEKFPDCQSKHGTSCMVSYMPTYYVNIEVWVEAENALGKVSSESINFDPVDKVKPTPPYNLSVTNSEELSSILKLSWVSSGLGGLLDLKSDIQYRTKDASTWIQVPLEDTMSPRTSFTVQDLKPFTEYVFRIRSIKDSGKGYWSDWSEEASGTTYEDRPSRPPSFWYKTNPSHGQEYRSVRLIWKALPLSEANGKILDYEVILTQSKSVSQTYTVTGTELTVNLTNDRYVASLAARNKVGKSAAAVLTIPSPHVTAAYSVVNLKAFPKDNLLWVEWTPPPKPVSKYILEWCVLSENAPCVEDWQQEDATVNRTHLRGRLLESKCYQITVTPVFATGPGGSESLKAYLKQAAPARGPTVRTKKVGKNEAVLAWDQIPVDDQNGFIRNYSISYRTSVGKEMVVHVDSSHTEYTLSSLSSDTLYMVRMAAYTDEGGKDGPEFTFTTPKFAQGEIEAIVVPVCLAFLLTTLLGVLFCFNKRDLIKKHIWPNVPDPSKSHIAQWSPHTPPRHNFNSKDQMYSDGNFTDVSVVEIEANNKKPCPDDLKSVDLFKKEKVSTEGHSSGIGGSSCMSSSRPSISSNEENESAQSTASTVQYSTVVHSGYRHQVPSVQVFSRSESTQPLLDSEERPEDLQLVDSVDGGDEILPRQPYFKQNCSQPEACPEISHFERSNQVLSGNEEDFVRLKQQQVSDHISQPYGSEQRRLFQEGSTADALGTGADGQMERFESVGMETTIDEEIPKSYLPQTVRQGGYMPQ
notes: whole, on cells; Endogenous receptor on M1 cells; also called LIFRβ
In the case of B3, the Kd in assay [3] was roughly 0.2 nM; in assay [4] it was 0.19 nM; in assay [5], 0.26 nM.

The values above are taken from patent US20040006018A1 (Genentech, published 2004).
